We go through two molecules from article PMC3164629.

Positions count from the first letter of the chain named.

By Kd is commonly meant the equilibrium constant for the complex coming apart.

Substrate in the assay “SPR”: CON-S gp140CFI Env, natively deglycosylated with PNGase F 500 U per µg (HIV-1 group M consensus)
Briefly: SPR. On the technique in general: Surface plasmon resonance follows binding to a sensor surface in real time, without labels.

Assay [1] concerns the target group M consensus gp140 Env, CON-S gp140CFI, WT glycosylated (HIV-1 group M consensus). Briefly: SPR.

B1: 2F5 reverted unmutated ancestor antibody RUA1 (antibody, V domains shown)
VH: QITLKESGPTLVKPTQTLTLTCTFSGFSLSTSGVGVGWIRQPPGKALEWLALIYWNDDKRYSPSLKSRLTITKDTSKNQVVLTMTNMDPVDTATYYCAHRRGPTTLFGVVIARGPVNGMDVWGQGTTVTVSS
VL: AIQLTQSPSSLSASVGDRVTITCRASQGISSALAWYQQKPGKAPKLLIYDASSLESGVPSRFSGSGSGTDFTLTISSLQPEDFATYYCQQFNNYPHTFGGGTKVEIK
For B1, the Kd was determined as 67 nM in the assay “SPR” and 118 nM in assay [1].

B2: 2F5 reverted unmutated ancestor antibody RUA2 (antibody, V domains shown)
VH: B1 VH with N56D, S62G
VL: B1 VL
As to B2, the values for the dissociation constant (Kd) (in “SPR”; in assay [1]) were 360 nM and 4000 nM, respectively.
